The values that follow come from patent US20250215089A1 (HARBOUR BIOMED SHANGHAI, published 2025).

Substitutions are numbered along the chain they refer to. Numbers in names are those of the source. Where “and” joins values, the source holds several entries; their conditions need not be identical. Equal values may be shown once.

B1: PR007273 (bispecific antibody, human IgG1, kappa)
heavy: QVQLVESGGGVVQPGMSLRLSCAASGFDFSSYGMYWVRQAPGKGQEWVASIRYTGTEKHYADSVKGRFTISRDNSKNTLYLEMNSLRVEDTAVYYCAKNRAIFGVVPDASDIRGQGTMVTVSSGGGGSQVQLVQSGAEVKKPGASVKVSCKASGYTFAGYYMYWVRQAPGQGLEWMGWINPDSGAPTYAQKFQGRVTMTRDTSISTAYMELSRLRSDDTAVYYCAREKIYYGSGNYYPSFDYWGQGTLVTVSSASTKGPSVFPLAPSSKSTSGGTAALGCLVKDYFPEPVTVSWNSGALTSGVHTFPAVLQSSGLYSLSSVVTVPSSSLGTQTYICNVNHKPSNTKVDKKVEPKSCDKTHTCPPCPAPEAAGAPSVFLFPPKPKDTLMISRTPEVTCVVVDVSHEDPEVKFNWYVDGVEVHNAKTKPREEQYNSTYRVVSVLTVLHQDWLNGKEYKCKVSNKALPAPIEKTISKAKGQPREPQVYTLPPSREEMTKNQVSLTCLVKGFYPSDIAVEWESNGQPENNYKTTPPVLDSDGSFFLYSKLTVDKSRWQQGNVFSCSVMHEALHNHYTQKSLSLSPGK
light: DIQLTQSPSFLSASVGDRVTITCRASQGISSYLAWYQQKPGKAPKLLIYAASTLQSGVPSRFSGSGSGTEFTLTISSLQPEDFATYYCQQLASYPWTFGQGTKVEIKRTVAAPSVFIFPPSDEQLKSGTASVVCLLNNFYPREAKVQWKVDNALQSGNSQESVTEQDSKDSTYSLSSTLTLSKADYEKHKVYACEVTHQGLSSPVTKSFNRGEC
notes: VH of PR006245 (PD-L1) - GS_5 - heavy chain of CD40 IgG PR006495; human IgG1 L234A/L235A/G237A; also called PD-L1×CD40
B2: PR007619 (bispecific antibody, human IgG1, kappa)
heavy: QVQLVESGGGVVQPGMSLRLSCAASGFDFSSYGMYWVRQAPGKGQEWVASIRYTGTEKHYADSVKGRFTISRDNSKNTLYLEMNSLRVEDTAVYYCAKNRAIFGVIPDDSDIRGQGTMVTVSSGGSQVQLVQSGAEVKKPGASVKVSCKASGYTFAGYYMYWVRQAPGQGLEWMGWINPDSGAPTYAQKFQGRVTMTRDTSISTAYMELSRLRSDDTAVYYCAREKIYYGSGNYYPSFDYWGQGTLVTVSSASTKGPSVFPLAPSSKSTSGGTAALGCLVKDYFPEPVTVSWNSGALTSGVHTFPAVLQSSGLYSLSSVVTVPSSSLGTQTYICNVNHKPSNTKVDKKVEPKSCDKTHTCPPCPAPEAAGAPSVFLFPPKPKDTLMISRTPEVTCVVVDVSHEDPEVKFNWYVDGVEVHNAKTKPREEQYNSTYRVVSVLTVLHQDWLNGKEYKCKVSNKALPAPIEKTISKAKGQPREPQVYTLPPSREEMTKNQVSLTCLVKGFYPSDIAVEWESNGQPENNYKTTPPVLDSDGSFFLYSKLTVDKSRWQQGNVFSCSVMHEALHNHYTQKSLSLSPGK
light: B1 light with A92V
notes: VH of PR006246 (PD-L1) - GS_3 - heavy chain of CD40 IgG PR006504; human IgG1 L234A/L235A/G237A; also called PD-L1×CD40
B3: PR007275 (bispecific antibody, human IgG1, kappa)
heavy: B1 heavy with I102L, V106I
light: B1 light
notes: VH of PR006247 (PD-L1) - GS_5 - heavy chain of CD40 IgG PR006495; human IgG1 L234A/L235A/G237A; also called PD-L1×CD40
B4: PR006495 (antibody, human IgG1, kappa, V domains shown)
VH: QVQLVQSGAEVKKPGASVKVSCKASGYTFAGYYMYWVRQAPGQGLEWMGWINPDSGAPTYAQKFQGRVTMTRDTSISTAYMELSRLRSDDTAVYYCAREKIYYGSGNYYPSFDYWGQGTLVTVSS
VL: DIQLTQSPSFLSASVGDRVTITCRASQGISSYLAWYQQKPGKAPKLLIYAASTLQSGVPSRFSGSGSGTEFTLTISSLQPEDFATYYCQQLASYPWTFGQGTKVEIKR
notes: Variant of PR003379, L: N92A; human IgG1 L234A, L235A, G237A
B5: PR006497 (antibody, human IgG1, kappa, V domains shown)
VH: B4 VH
VL: B4 VL with A92Y
notes: Variant of PR003379, L: N92Y; human IgG1 L234A, L235A, G237A
B6: PR006496 (antibody, human IgG1, kappa, V domains shown)
VH: B4 VH
VL: B4 VL with A92F
notes: Variant of PR003379, L: N92F; human IgG1 L234A, L235A, G237A
B7: PR006504 (antibody, human IgG1, kappa, V domains shown)
VH: B4 VH
VL: B4 VL with A92V
notes: Variant of PR003379, L: N92V; human IgG1 L234A, L235A, G237A
B8: PR006511 (antibody, human IgG1, kappa, V domains shown)
VH: B4 VH
VL: B4 VL with A92N, S93N
notes: Variant of PR003379, L: S93N; human IgG1 L234A, L235A, G237A

T4 sequence (Q9NZQ7 19-290): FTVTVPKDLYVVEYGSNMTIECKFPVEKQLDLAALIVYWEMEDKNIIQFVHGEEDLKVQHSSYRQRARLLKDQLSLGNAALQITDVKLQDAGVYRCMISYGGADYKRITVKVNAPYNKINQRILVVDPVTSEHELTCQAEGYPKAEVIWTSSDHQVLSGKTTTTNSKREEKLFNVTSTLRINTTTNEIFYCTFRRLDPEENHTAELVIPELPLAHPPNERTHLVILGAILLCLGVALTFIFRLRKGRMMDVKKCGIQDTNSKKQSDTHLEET

In one test the target is T1, cynomolgus monkey PD-L1 (cynomolgus monkey).
T1 construct: whole, on cells; also called cyPD-L1
Description: FACS, CHO-K1/cyPD-L1 cells. The gist of the method:
(§1)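 Binding of antibodies to PD-L1-expressing cells (1×10⁶ cells/mL in PBS/2% BSA), tested in 4-fold dilution series. Incubation 2 h at 4° C in the dark, then washes. Fluorescence read by flow cytometry.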
In general terms: In flow cytometry, cells or beads pass a laser one at a time.
For orientation: EC50 means the midpoint of the concentration-response curve. As for B1, the EC50 is 890 pM and the “Maximum MFI” value amounted to 4620 MFI.

Regarding B2, the EC50 came to 629 pM and the “Maximum MFI” value stood at 4820 MFI.

Regarding B3, a half-maximal effect (EC50) was put at 807 pM and the “Maximum MFI” value amounted to 4620 MFI.

For another test, the target named is T2, human CD40 (human, UniProt P25942 21-277). Description: cell-based or functional assay.
T2 sequence (P25942 21-277): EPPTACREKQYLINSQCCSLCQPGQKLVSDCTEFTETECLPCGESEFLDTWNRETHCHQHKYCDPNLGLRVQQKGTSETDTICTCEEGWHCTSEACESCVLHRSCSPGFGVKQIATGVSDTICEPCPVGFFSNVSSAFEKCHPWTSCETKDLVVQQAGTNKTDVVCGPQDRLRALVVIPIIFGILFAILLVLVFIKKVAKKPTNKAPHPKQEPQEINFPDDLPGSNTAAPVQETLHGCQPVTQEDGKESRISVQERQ
Turning to B4, the “EC50, HEK293-hCD40-NFκB reporter, crosslinked” value is 109 pM; the “EC50, HEK293-hCD40-NFκB reporter, uncrosslinked” value (“EC50 … uncrosslinked” for short) is 905 pM; the “Fold (EC50 in the absence of crosslinking/EC50 in the presence of crosslinking)” value came to 8.28 fold; the “Maximum fold, HEK293-hCD40-NFκB reporter, crosslinked” value came out at 5.54 fold. Further, the “Maximum fold, HEK293-hCD40-NFκB reporter, uncrosslinked” value (shortened to “Maximum fold … uncrosslinked”) was 4.92 fold.

With B5, the “EC50, HEK293-hCD40-NFκB reporter, crosslinked” value was found to be 158 pM; the “EC50 … uncrosslinked” value was determined as 479 pM; the “Fold (EC50 in the absence of crosslinking/EC50 in the presence of crosslinking)” value was 3.03 fold; the “Maximum fold, HEK293-hCD40-NFκB reporter, crosslinked” value was 4.77 fold. Besides, the “Maximum fold … uncrosslinked” value was found to be 4.61 fold.

B6: the “EC50, HEK293-hCD40-NFκB reporter, crosslinked” value turned out to be 217 pM; the “EC50 … uncrosslinked” value was found to be 430 pM; the “Fold (EC50 in the absence of crosslinking/EC50 in the presence of crosslinking)” value was 1.98 fold; the “Maximum fold, HEK293-hCD40-NFκB reporter, crosslinked” value was determined as 5.03 fold. Moreover, the “Maximum fold … uncrosslinked” value is 4.43 fold.

A further test addresses T3, cynomolgus monkey CD40 (cynomolgus monkey).
T3 construct: whole, on cells; also called cyCD40
Description: FACS, CHO-K1/cyCD40 cells. The gist of the method: (§2)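 Cells carrying bound test antibody were kept 1 h at 4° C in the dark, washed in cold PBS, then stained 30 min at 4° C with Alexa Fluor 488 goat anti-human IgG (H+L) (1:1000). Fluorescence signal was read by flow cytometry.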
Take B1: the EC50 turned out to be 4200 pM and the “Maximum MFI” value is 71300 MFI.

As for B2, the EC50 was 1770 pM and the “Maximum MFI” value stood at 51300 MFI.

With B3, the EC50 was 4120 pM and the “Maximum MFI” value came to 66000 MFI.

The next test has as its target T4, human PD-L1 (human, UniProt Q9NZQ7 19-290).
T4 construct: whole, on cells; also called hPD-L1; CD274
Description: FACS, NCI-H226 cells. The gist of the method: as §1
As for B1, it took 773 pM to reach a half-maximal effect (EC50) and the “Maximum MFI” value turned out to be 914 MFI.

As to B2, the EC50 amounted to 366 pM and the “Maximum MFI” value came out at 914 MFI.

Take B3: the midpoint of the response, the EC50, lay at 764 pM and the “Maximum MFI” value came out at 959 MFI.

The target of the next test is T2, human CD40. Description: cell-based or functional assay. The source holds these as a separate data set.
Take B1: the “EC50, HEK293-hCD40-NFκB reporter, + CHO-K1” value was 238 pM; the “EC50, HEK293-hCD40-NFκB reporter, + CHO-K1/hPD-L1” value (“EC50 … + CHO-K1/hPD-L1” below) amounted to 59.8 pM; the “Maximum (RLU), HEK293-hCD40-NFκB reporter, + CHO-K1” value turned out to be 199000 RLU; the “Maximum (RLU), HEK293-hCD40-NFκB reporter, + CHO-K1/hPD-L1” value (“Maximum (RLU) … + CHO-K1/hPD-L1” below) was 333000 RLU.

B2: the “EC50, HEK293-hCD40-NFκB reporter, + CHO-K1” value is 334 pM; the “EC50 … + CHO-K1/hPD-L1” value was found to be 31.2 pM; the “Maximum (RLU), HEK293-hCD40-NFκB reporter, + CHO-K1” value worked out at 3880 RLU; the “Maximum (RLU) … + CHO-K1/hPD-L1” value turned out to be 4780 RLU.

For the molecule B3, the “EC50, HEK293-hCD40-NFκB reporter, + CHO-K1” value worked out at 213 pM; the “EC50 … + CHO-K1/hPD-L1” value is 55.8 pM; the “Maximum (RLU), HEK293-hCD40-NFκB reporter, + CHO-K1” value amounted to 231000 RLU; the “Maximum (RLU) … + CHO-K1/hPD-L1” value was 371000 RLU.

The target of the next test is T4, human PD-L1. Description: cell-based or functional assay.
For the molecule B1, the “EC50, Jurkat-NFAT-hPD1 reporter” value was found to be 109 pM and the “Maximum (RLU), Jurkat-NFAT-hPD1 reporter” value was determined as 2520 RLU.

In the case of B2, the “EC50, Jurkat-NFAT-hPD1 reporter” value is 122 pM and 309 pM.

For B3, the “EC50, Jurkat-NFAT-hPD1 reporter” value turned out to be 234 pM and the “Maximum (RLU), Jurkat-NFAT-hPD1 reporter” value worked out at 2840 RLU.

A further test deals with T2, human CD40. Description: FACS, CHO-K1/hCD40 cells. The method, boiled down: as §2
Consider B1, for which the midpoint of the response, the EC50, lay at 2050 pM and the “Maximum MFI” value is 14300 MFI.

On to B2, for which a half-maximal effect (EC50) was put at 2500 pM and the “Maximum MFI” value was found to be 17700 MFI.

Turning to B3, the EC50 came out at 2570 pM and the “Maximum MFI” value was 14200 MFI.

The target of the next test is T4, human PD-L1. Description: FACS, CHO-K1/hPD-L1 cells. The method, boiled down:
as §1
B1: the EC50 came out at 1390 pM and the “Maximum MFI” value came out at 19800 MFI.

With B2, the EC50 came out at 1020 pM and the “Maximum MFI” value turned out to be 20100 MFI.

As for B3, the EC50 is 1290 pM and the “Maximum MFI” value is 20000 MFI.

The next test has as its target T2, human CD40. Description: FACS, Raji cells. The gist of the method:
as §2
As to B1, the EC50 turned out to be 1430 pM and the “Maximum MFI” value came to 7580 MFI.

On to B2, for which it took 1260 pM to reach a half-maximal effect (EC50) and the “Maximum MFI” value was determined as 6790 MFI.

On to B3, for which a half-maximal effect (EC50) was put at 1580 pM and the “Maximum MFI” value is 7650 MFI.

The target in a further test is T2, human CD40. Description: FACS, Raji cells. This is another data set of the same source. On the procedure: The cells were incubated at 4° C. for 1 hours in the dark. After the incubation, the cells were rinsed twice by adding pre-chilled PBS at 100 μL/well, and centrifuged at 500 g at 4° C. for 5 minutes, and the supernatant was discarded. Then, a fluorescent secondary antibody (goat anti-human IgG (H+L) secondary antibody, Alexa Fluor® 488 conjugate, Invitrogen, #A11013, 1:1000 dilution) was added at 100 μL/well, and the cells were incubated at 4° C. for 30 minutes in the dark. The cells were washed twice with pre-chilled PBS at 200 μL/well, and centrifuged at 500 g at 4° C. for 5 minutes, and the supernatant was discarded. Finally, the cells were resuspended in pre-chilled PBS at 200 μL/well. The fluorescence signal values were read using a BD FACS CANTOII flow cytometer or ACEA NovoCyte flow cytometer, and the data were processed and analyzed using FlowJo v10 software (FlowJo, LLC).
Data processing and graphical analysis were performed using GraphPad Prism 8 software. The binding curve of the antibody to the target cell and parameters, such as EC₅₀ value were obtained by four-parameter nonlinear fitting.
As to B4, the response was half-maximal at 356 pM (EC50) and the “Maximum MFI” value turned out to be 8870 MFI.

Take B7: it took 350 pM to reach a half-maximal effect (EC50) and the “Maximum MFI” value was 12200 MFI.

Regarding B5, the EC50 was 252 pM and the “Maximum MFI” value is 9200 MFI.

For the molecule B8, the EC50 was 386 pM and the “Maximum MFI” value is 11800 MFI.

As for B6, the EC50 is 277 pM and the “Maximum MFI” value amounted to 9300 MFI.
